pKd: −log10 of the molar value.
Target: hC3nb1-K57-ScFc (llama | bovine)
Experiment: SPR

pKd: 8.43
Substance: human Complement C3 (natural protein)
